Data taken from patent US20100215651A1 (GLENMARK PHARMACEUTICALS S A, published 2010).

T1: human CD19 (human, UniProt P15391 20-556)
T1 construct: CD19 as expressed on Raji, NALM-6 and SU-DHL-6 cells; also called CD19 antigen; B-cell surface antigen B4
T1 sequence: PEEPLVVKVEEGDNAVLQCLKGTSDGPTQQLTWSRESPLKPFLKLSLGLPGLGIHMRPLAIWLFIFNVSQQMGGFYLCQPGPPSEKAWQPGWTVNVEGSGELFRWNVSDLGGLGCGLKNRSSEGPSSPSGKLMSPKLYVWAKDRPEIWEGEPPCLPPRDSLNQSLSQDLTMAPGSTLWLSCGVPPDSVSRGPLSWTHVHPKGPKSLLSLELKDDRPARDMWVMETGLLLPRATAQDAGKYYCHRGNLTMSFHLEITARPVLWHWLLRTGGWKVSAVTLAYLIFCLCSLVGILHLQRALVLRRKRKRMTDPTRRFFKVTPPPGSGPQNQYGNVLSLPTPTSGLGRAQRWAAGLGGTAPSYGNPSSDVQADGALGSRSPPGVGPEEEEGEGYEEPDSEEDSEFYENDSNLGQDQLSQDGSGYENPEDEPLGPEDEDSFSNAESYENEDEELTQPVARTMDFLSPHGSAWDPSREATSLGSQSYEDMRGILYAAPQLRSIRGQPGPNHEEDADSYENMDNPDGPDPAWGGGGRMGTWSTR


target: T1, human CD19; assay: flow cytometry, Raji cells, MPF vs chimeric FMC63
Experimental: Binding of the CD19 humanized monoclonal antibodies by flow cytometry to Raji tumor cells (human Burkitt lymphoma, DSMZ ACC319), NALM-6 (human B cell precursor leukemia, DSMZ ACC128) and SU-DHL-6 (human B cell lymphoma, DSMZ ACC572) (all cell lines from DSMZ Braunschweig, Deutschland) was assessed. Cells were incubated with serial dilutions of each humanized monoclonal antibody. An irrelevant human IgG1 was used as a negative control. The cells were washed and detected by a phycoerythrin-labeled (PE) anti-human secondary antibody (eBioscience, CA, USA) and analyzed by flow cytometry. […] From MFI versus antibody concentration curves, Mid-Point Fluorescence (MPF) value for each anti-CD19 humanized antibody was calculated using the software GraphPad Prism 5 (CA, USA).

| Binder | relative MPF (% of chimeric FMC63) [%] | binding result |
| --- | --- | --- |
| VH16 R94K/VL43 V3Q/T7S/Y32F/P44I/N92A (antibody, human IgG1, kappa, V domains shown, human IgG1/kappa) VH: QVQLVQSGGGVVQPGRSLRLSCAASGVSLPDYGVSWVRQAPGKGLEWVAVIWGSETTYYNSALKSRFTISRDNSKNTLYLQMNSLRAEDTAVYYCAKHYYYGGSYAMDYWGQGTLVTVSS VL: DIQMTQSPSSLSASVGDRVTITCRASQDISKFLNWYQQKPGKAIKLLIYHTSRLHSGVPSRFSGSGSGTDFTLTISSLQPEDFATYYCQQGATLPYTFGPGTKVDIKR | 111 |  |
| VH16 R94K Y97F VL43 (antibody, human IgG1, name in Kabat numbering, V domains shown, substitutions in Kabat numbering) VH: QVQLVQSGGGVVQPGRSLRLSCAASGVSLPDYGVSWVRQAPGKGLEWVAVIWGSETTYYNSALKSRFTISRDNSKNTLYLQMNSLRAEDTAVYYCAKHYFYGGSYAMDYWGQGTLVTVSS VL: DIVMTQTPSSLSASVGDRVTITCRASQDISKYLNWYQQKPGKAPKLLIYHTSRLHSGVPSRFSGSGSGTDFTLTISSLQPEDFATYYCQQGNTLPYTFGPGTKVDIKR | 72.8 |  |
| VH16-L78V/VL43-F71Y (antibody, human IgG1, name in Kabat numbering, V domains shown, substitutions in Kabat numbering) VH: QVQLVQSGGGVVQPGRSLRLSCAASGVSLPDYGVSWVRQAPGKGLEWVAVIWGSETTYYNSALKSRFTISRDNSKNTVYLQMNSLRAEDTAVYYCARHYYYGGSYAMDYWGQGTLVTVSS VL: DIVMTQTPSSLSASVGDRVTITCRASQDISKYLNWYQQKPGKAPKLLIYHTSRLHSGVPSRFSGSGSGTDYTLTISSLQPEDFATYYCQQGNTLPYTFGPGTKVDIKR | 12.3 |  |
| VH16-F67L/VL43-F71Y (antibody, human IgG1, name in Kabat numbering, V domains shown, substitutions in Kabat numbering) VH: QVQLVQSGGGVVQPGRSLRLSCAASGVSLPDYGVSWVRQAPGKGLEWVAVIWGSETTYYNSALKSRLTISRDNSKNTLYLQMNSLRAEDTAVYYCARHYYYGGSYAMDYWGQGTLVTVSS VL: DIVMTQTPSSLSASVGDRVTITCRASQDISKYLNWYQQKPGKAPKLLIYHTSRLHSGVPSRFSGSGSGTDYTLTISSLQPEDFATYYCQQGNTLPYTFGPGTKVDIKR | 6.54 |  |
| VH16 R94K Y98F VL43 (antibody, human IgG1, name in Kabat numbering, V domains shown, substitutions in Kabat numbering) VH: QVQLVQSGGGVVQPGRSLRLSCAASGVSLPDYGVSWVRQAPGKGLEWVAVIWGSETTYYNSALKSRFTISRDNSKNTLYLQMNSLRAEDTAVYYCAKHYYFGGSYAMDYWGQGTLVTVSS VL: DIVMTQTPSSLSASVGDRVTITCRASQDISKYLNWYQQKPGKAPKLLIYHTSRLHSGVPSRFSGSGSGTDFTLTISSLQPEDFATYYCQQGNTLPYTFGPGTKVDIKR | 34.1 |  |
| VH16-G42R/VL43-P44V (antibody, human IgG1, name in Kabat numbering, V domains shown, substitutions in Kabat numbering) VH: QVQLVQSGGGVVQPGRSLRLSCAASGVSLPDYGVSWVRQAPRKGLEWVAVIWGSETTYYNSALKSRFTISRDNSKNTLYLQMNSLRAEDTAVYYCARHYYYGGSYAMDYWGQGTLVTVSS VL: DIVMTQTPSSLSASVGDRVTITCRASQDISKYLNWYQQKPGKAVKLLIYHTSRLHSGVPSRFSGSGSGTDFTLTISSLQPEDFATYYCQQGNTLPYTFGPGTKVDIKR | 8.33 |  |
| VH16 R94K Y96F VL43 (antibody, human IgG1, name in Kabat numbering, V domains shown, substitutions in Kabat numbering) VH: QVQLVQSGGGVVQPGRSLRLSCAASGVSLPDYGVSWVRQAPGKGLEWVAVIWGSETTYYNSALKSRFTISRDNSKNTLYLQMNSLRAEDTAVYYCAKHFYYGGSYAMDYWGQGTLVTVSS VL: DIVMTQTPSSLSASVGDRVTITCRASQDISKYLNWYQQKPGKAPKLLIYHTSRLHSGVPSRFSGSGSGTDFTLTISSLQPEDFATYYCQQGNTLPYTFGPGTKVDIKR | 5.36 |  |
| VH16-L78V/VL43 (antibody, human IgG1, name in Kabat numbering, V domains shown, substitutions in Kabat numbering) VH: QVQLVQSGGGVVQPGRSLRLSCAASGVSLPDYGVSWVRQAPGKGLEWVAVIWGSETTYYNSALKSRFTISRDNSKNTVYLQMNSLRAEDTAVYYCARHYYYGGSYAMDYWGQGTLVTVSS VL: DIVMTQTPSSLSASVGDRVTITCRASQDISKYLNWYQQKPGKAPKLLIYHTSRLHSGVPSRFSGSGSGTDFTLTISSLQPEDFATYYCQQGNTLPYTFGPGTKVDIKR | 10.8 |  |
| VH16-F67L/VL43-Y87F (antibody, human IgG1, name in Kabat numbering, V domains shown, substitutions in Kabat numbering) VH: QVQLVQSGGGVVQPGRSLRLSCAASGVSLPDYGVSWVRQAPGKGLEWVAVIWGSETTYYNSALKSRLTISRDNSKNTLYLQMNSLRAEDTAVYYCARHYYYGGSYAMDYWGQGTLVTVSS VL: DIVMTQTPSSLSASVGDRVTITCRASQDISKYLNWYQQKPGKAPKLLIYHTSRLHSGVPSRFSGSGSGTDFTLTISSLQPEDFATYFCQQGNTLPYTFGPGTKVDIKR | 4.35 |  |
| VH16 R94K Y32F VL43 (antibody, human IgG1, name in Kabat numbering, V domains shown, substitutions in Kabat numbering) VH: QVQLVQSGGGVVQPGRSLRLSCAASGVSLPDFGVSWVRQAPGKGLEWVAVIWGSETTYYNSALKSRFTISRDNSKNTLYLQMNSLRAEDTAVYYCAKHYYYGGSYAMDYWGQGTLVTVSS VL: DIVMTQTPSSLSASVGDRVTITCRASQDISKYLNWYQQKPGKAPKLLIYHTSRLHSGVPSRFSGSGSGTDFTLTISSLQPEDFATYYCQQGNTLPYTFGPGTKVDIKR | 62.5 |  |
| VH16 Y32F/R94K/VL43 V3Q/T7S/N92A (antibody, human IgG1, name in Kabat numbering, V domains shown, substitutions in Kabat numbering) VH: QVQLVQSGGGVVQPGRSLRLSCAASGVSLPDFGVSWVRQAPGKGLEWVAVIWGSETTYYNSALKSRFTISRDNSKNTLYLQMNSLRAEDTAVYYCAKHYYYGGSYAMDYWGQGTLVTVSS VL: DIQMTQSPSSLSASVGDRVTITCRASQDISKYLNWYQQKPGKAPKLLIYHTSRLHSGVPSRFSGSGSGTDFTLTISSLQPEDFATYYCQQGATLPYTFGPGTKVDIKR | 58.8 |  |

The remaining lines, values ahead:

| relative MPF (% of chimeric FMC63) [%] | binding result | Binder |
| --- | --- | --- |
| 11.3 |  | VH16/VL43-F71Y (antibody, human IgG1, V domains shown, substitutions in Kabat numbering) VH: QVQLVQSGGGVVQPGRSLRLSCAASGVSLPDYGVSWVRQAPGKGLEWVAVIWGSETTYYNSALKSRFTISRDNSKNTLYLQMNSLRAEDTAVYYCARHYYYGGSYAMDYWGQGTLVTVSS VL: DIVMTQTPSSLSASVGDRVTITCRASQDISKYLNWYQQKPGKAPKLLIYHTSRLHSGVPSRFSGSGSGTDYTLTISSLQPEDFATYYCQQGNTLPYTFGPGTKVDIKR |
| 6.93 |  | VH16-R71K/VL43-P44V (antibody, human IgG1, name in Kabat numbering, V domains shown, substitutions in Kabat numbering) VH: QVQLVQSGGGVVQPGRSLRLSCAASGVSLPDYGVSWVRQAPGKGLEWVAVIWGSETTYYNSALKSRFTISKDNSKNTLYLQMNSLRAEDTAVYYCARHYYYGGSYAMDYWGQGTLVTVSS VL: DIVMTQTPSSLSASVGDRVTITCRASQDISKYLNWYQQKPGKAVKLLIYHTSRLHSGVPSRFSGSGSGTDFTLTISSLQPEDFATYYCQQGNTLPYTFGPGTKVDIKR |
| 4.43 |  | VH16-R71K/VL43 (antibody, human IgG1, name in Kabat numbering, V domains shown, substitutions in Kabat numbering) VH: QVQLVQSGGGVVQPGRSLRLSCAASGVSLPDYGVSWVRQAPGKGLEWVAVIWGSETTYYNSALKSRFTISKDNSKNTLYLQMNSLRAEDTAVYYCARHYYYGGSYAMDYWGQGTLVTVSS VL: DIVMTQTPSSLSASVGDRVTITCRASQDISKYLNWYQQKPGKAPKLLIYHTSRLHSGVPSRFSGSGSGTDFTLTISSLQPEDFATYYCQQGNTLPYTFGPGTKVDIKR |
|  | binds | VH16 R94K/Y97F/VL43 V3Q/T7S/N92A (antibody, human IgG1, name in Kabat numbering, V domains shown, substitutions in Kabat numbering) VH: QVQLVQSGGGVVQPGRSLRLSCAASGVSLPDYGVSWVRQAPGKGLEWVAVIWGSETTYYNSALKSRFTISRDNSKNTLYLQMNSLRAEDTAVYYCAKHYFYGGSYAMDYWGQGTLVTVSS VL: DIQMTQSPSSLSASVGDRVTITCRASQDISKYLNWYQQKPGKAPKLLIYHTSRLHSGVPSRFSGSGSGTDFTLTISSLQPEDFATYYCQQGATLPYTFGPGTKVDIKR |
| 4.19 |  | VH16-R71K/VL43-Y87F (antibody, human IgG1, name in Kabat numbering, V domains shown, substitutions in Kabat numbering) VH: QVQLVQSGGGVVQPGRSLRLSCAASGVSLPDYGVSWVRQAPGKGLEWVAVIWGSETTYYNSALKSRFTISKDNSKNTLYLQMNSLRAEDTAVYYCARHYYYGGSYAMDYWGQGTLVTVSS VL: DIVMTQTPSSLSASVGDRVTITCRASQDISKYLNWYQQKPGKAPKLLIYHTSRLHSGVPSRFSGSGSGTDFTLTISSLQPEDFATYFCQQGNTLPYTFGPGTKVDIKR |
|  | binds | VH16 Y32F/R94K/VL43 V3Q/T7S/Y32F/N92A (antibody, human IgG1, name in Kabat numbering, V domains shown, substitutions in Kabat numbering) VH: QVQLVQSGGGVVQPGRSLRLSCAASGVSLPDFGVSWVRQAPGKGLEWVAVIWGSETTYYNSALKSRFTISRDNSKNTLYLQMNSLRAEDTAVYYCAKHYYYGGSYAMDYWGQGTLVTVSS VL: DIQMTQSPSSLSASVGDRVTITCRASQDISKFLNWYQQKPGKAPKLLIYHTSRLHSGVPSRFSGSGSGTDFTLTISSLQPEDFATYYCQQGATLPYTFGPGTKVDIKR |
| 17.9 |  | VH16-L78V/VL43-Y87F (antibody, human IgG1, name in Kabat numbering, V domains shown, substitutions in Kabat numbering) VH: QVQLVQSGGGVVQPGRSLRLSCAASGVSLPDYGVSWVRQAPGKGLEWVAVIWGSETTYYNSALKSRFTISRDNSKNTVYLQMNSLRAEDTAVYYCARHYYYGGSYAMDYWGQGTLVTVSS VL: DIVMTQTPSSLSASVGDRVTITCRASQDISKYLNWYQQKPGKAPKLLIYHTSRLHSGVPSRFSGSGSGTDFTLTISSLQPEDFATYFCQQGNTLPYTFGPGTKVDIKR |
